Data: PMC10439114

Molecular target: T1, CD155 with a C-terminal V5 epitope tag, on Raji cells (UniProt P15151)
T1 sequence: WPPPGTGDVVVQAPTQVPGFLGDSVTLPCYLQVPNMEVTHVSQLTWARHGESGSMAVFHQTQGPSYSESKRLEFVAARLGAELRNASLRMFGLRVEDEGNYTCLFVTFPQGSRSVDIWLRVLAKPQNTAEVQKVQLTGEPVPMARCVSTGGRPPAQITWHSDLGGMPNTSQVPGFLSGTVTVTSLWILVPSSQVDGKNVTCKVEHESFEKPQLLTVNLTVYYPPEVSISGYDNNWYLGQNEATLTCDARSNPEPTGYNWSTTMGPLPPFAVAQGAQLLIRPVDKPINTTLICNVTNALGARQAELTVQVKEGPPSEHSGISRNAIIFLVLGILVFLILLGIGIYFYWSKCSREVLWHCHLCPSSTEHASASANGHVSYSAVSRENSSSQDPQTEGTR

- IL-2 release of Jurkat TIGIT-SNAP cells after 6 h with SEE-pulsed Raji-CD155 relative to Raji-CD111 co-cultures (ELISA): 37%
- log2-fold decrease of IL-2 release of Jurkat TIGIT-SNAP cells with SEE-pulsed Raji-CD155 against Raji-CD111 (ELISA): 1.45 log2 fold
B1: TIGIT-SNAP (wild-type TIGIT with a C-terminal SNAP-tag, on Jurkat cells) (receptor)
chain: MMTGTIETTGNISAEKGGSIILQCHLSSTTAQVTQVNWEQQDQLLAICNADLGWHISPSFKDRVAPGPGLGLTLQSLTVNDTGEYFCIYHTYPDGTYTGRIFLEVLESSVAEHGARFQIPLLGAMAATLVVICTAVIVVVALTRKKKALRIHSVEGDLRRKSAGQEEWSPSAPSPPGSCVQAEAAPAGLCGEQRGEDCAELHDYFNVLSYRSLGNCSFFTETG
